# Laboratory results reported in IntAct's records for PubMed 22596162.
# B1: E3 ubiquitin-protein ligase RLIM (Mus musculus), Q9WTV7 (parent)
# chain: MENSDSNDKGSDQSAAQRRSQMDRLDREEAFYQFVNNLSEEDYRLMRDNNLLGTPGESTEEELLRRLQQIKEGPPPQSPDENRAGESSDDVTNSDSIIDWLNSVRQTGNTTRSGQRGNQSWRAVSRTNPNSGDFRFSLEINVNRNNGSQTSENESEPSTRRLSVENMESSSQRQMENSASESASARPSRAERNSAEAVTEVPTTRAQRRARSRSPEHRRTRARAERSRSPLQPTSEIPRRAPTLEQSSENEPEGSSRTRHHVTLRQQISGPELLGRGLFAASGSRNPSQGTSSSDTGSNSESSGSGQRPPTIVLDLQVRRVRPGEYRQRDSIASRTRSRSQAPNNTVTYESERGGFRRTFSRSERAGVRTYVSTIRIPIRRILNTGLSETTSVAIQTMLRQIMTGFGELSYFMYSDSDSEPSASVSSRNVERVESRNGRGSSGGGNSSGSSSSSSPSPSSSGESSESSSEMFEGSSEGGSSGPSRRDGRHRAPVTFDESGSLPFLSLAQFFLLNEDDEDQPRGLTKEQIDNLAMRSFGENDALKTCSVCITEYTEGNKLRKLPCSHEYHVHCIDRWLSENSTCPICRRAVLSSGNRESVV
# Variants of: B1
# Settings: with zfp42_mouse Zfp42, P22227
# Chain of zfp42_mouse Zfp42, P22227 (P22227 whole entry): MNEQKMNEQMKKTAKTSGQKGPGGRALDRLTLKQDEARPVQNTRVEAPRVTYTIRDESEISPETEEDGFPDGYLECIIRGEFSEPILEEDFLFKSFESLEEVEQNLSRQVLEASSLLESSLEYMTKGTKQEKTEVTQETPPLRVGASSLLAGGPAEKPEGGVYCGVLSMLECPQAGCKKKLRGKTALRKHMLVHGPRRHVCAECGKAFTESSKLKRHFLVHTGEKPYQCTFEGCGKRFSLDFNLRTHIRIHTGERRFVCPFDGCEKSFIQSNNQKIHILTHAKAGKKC
row,effect of a mutation on the interaction,Variant
1,with no effect,MENSDSNDKGSDQSAAQRRSQMDRLDREEAFYQFVNNLSEEDYRLMRDNNLLGTPGESTEEELLRRLQQIKEGPPPQSPDENRAGESSDDVTNSDSIIDWLNSVRQTGNTTRSGQRGNQSWRAVSRTNPNSGDFRFSLEINVNRNNGSQTSENESEPSTRRLSVENMESSSQRQMENSASESASARPSRAERNSAEAVTEVPTTRAQRRARSRSPEHRRTRARAERSRSPLQPTSEIPRRAPTLEQSSENEPEGSSRTRHHVTLRQQISGPELLGRGLFAASGSRNPSQGTSSSDTGSNSESSGSGQRPPTIVLDLQVRRVRPGEYRQRDSIASRTRSRSQAPNNTVTYESERGGFRRTFSRSERAGVRTYVSTIRIPIRRILNTGLSETTSVAIQTMLRQIMTGFGELSYFMYSDSDSEPSASVSSRNVERVESRNGRGSSGGGNSSGSSSSSSPSPSSSGESSESSSEMFEGSSEGGSSGPSRRDGRHRAPVTFDESGSLPFLSLAQFFLLNEDDEDQPRGLTKEQIDNLAMRSFGENDALKTCSVCITEYTEGNKLRKLPCSHEYAVHAIDRWLSENSTCPICRRAVLSSGNRESVV [H569A;C572A]
